Results published in article PMC13185609.

Tests used:
[1] = molecular target: 246.F3 Env N276K (pseudovirus) (HIV-1 (subtype AC, 246.F3))
[2] = molecular target: 246.F3 Env, wild type (pseudovirus 246.F3-SG3 WT) (HIV-1 (subtype AC, 246.F3))
[3] = molecular target: Env of the infectious molecular clone 246.F3-NL4.3+BN (HIV-1 (NL4.3) | HIV-1 (subtype AC, 246.F3))
[4] = molecular target: 246.F3 Env N276D (pseudovirus made in Expi293F) (HIV-1 (subtype AC, 246.F3))

VRC01 (antibody) was tested, and the IC50 of neutralisation of pseudovirus, TZM-bl cells (highest concentration tested 50 µg/mL) [1] was > 50 µg/mL, the IC50 of neutralisation of pseudovirus, TZM-bl cells [2] was 0.204 µg/mL and the IC50 of neutralisation of the 246.F3-NL4.3+BN virus stock, TZM-bl cells [3] was 0.35 µg/mL. The IC80 of neutralisation of the 246.F3-NL4.3+BN virus stock, TZM-bl cells [3] was 0.85 µg/mL and the neutralisation of pseudovirus made in Expi293F cells, TZM-bl cells; fold change in sensitivity against wild-type 246.F3 [4] was 5 fold.
